Measurements as given in PMC8542387 (2021).

B1: Mip1-myc (wild type) [S. pombe] / FLAG-tagged Tor2 kinase [S. pombe] (parent complex)
chain 1: MNDRISEVSGSSRARRSVLSYGTTETGSDRYTENSNIATENGVDTASSMIDGIQSGFPQPRHGFEEEYNNAEYINMLEQVFYMYYTDKRHRGVISKKNAEPTETIHDWRMRERLKTVSAALLVCLNIGVDPPDVIKPNPAAKYECWIDPFSLPASKALEAIGKNLQQQYETLSMRTRYRHYLDPAIEEVKKLCIGQRRNAKEERILFHYNGHGVPMPTASGEIWVFNKNYTQYIPVSLYDLQSWLGAPCIYVYDCSAAGNIIVNFNRFAEQRDKEALRIAKQNPNVLAMPSHTSCIQLAACGPKETLPMNPDLPADLFTSCLTSPIEISVRWYVLQNPFPNKLNLNMLLKIPGRLQDRRTPLGELNWIFTAITDTIAWNVFPKHLFRRLFRQDLMVAALFRNFLLAERIMLVHSCHPQSSPELPPTHDHPMWNSWDLAIDNCLSQLPDMLDAESKGIAYEYKHSTFFSEQLTAFEVWLSQGLISRKPPDQLPLVLQVLLSQVHRLRALILLSKFLDLGVWAVDLALSIGIFPYVLKLLQSPAIELKPVLVFIWARILAVDDSCQADLLKDNGYGYFVQILNPNSSIFPSSNISEHRAMCAFILSVFCRGFPQGQLACLNPQVLSHCLSHLNSPDSLLRQWACLCISQLWENYSEAKWSGTRDNAHVKLAEIIVDSVPEVRASVLTAFTTFLGFPEKTEEVVAVETYIAIAALAALSDASPLVRHELVIFLSHFVVNYKKQLMVVAYESSLADILEKKNHNSISASTIYETVWQAVLVLAADPSIEISLAAEAIINYVYQSMLNSELRESFLAFLLQHLPALHKASLSKDTDTNSVTSDPKPHPFVPSVSENKILNRSFSLTRSLKGLALSLAGSDRASELLSLNGENKPAESNLNHLTSAKVPGPPAFNELEYQSELDMPLTSYLFDWSRKYFTEPQMRPNEDDEPGSICYNQRLWRRNRNEKLIYRTRPLAEYSTNGRWNQQLMTFNNTIAPRKLMFHQFEDQLITLGDKDIIQVWDWRRNRCLNSFKTSASATTNVTDMQLLNEDDVALLMTGSSDGTIKLYRDYENEKVELVTSWNSLSDLVFGDRNASLLMSWQQNCGHLLVAGDVRVIRIWDASKEICYANLPVRSSNSITSLTSDLVGCNIIVAGFSDGVLRVYDKRLPARDSLTDVWKEHSSEIVNVEMQSSGMRELISASSDGEVKLWDIRMNHSLQTFSTDNSGLTSLTVHSHAPVYATGSSNQSIKIWDTLGQNINTFRENPRFLNQPKPSSLMCLKFHPHHLLLACGDNTDSRVNLYSCTKNEIHTDSPNEF
chain 2: MKEFPGLKSRNEEIRNKAANDLYEYVIAYSRELSGEALVQFNNDVNKYVYTLIHSTDPLDRLAGVTAINRLIDYEGEDTTRITRFANYLRIILPGTDQKATVLAAKALGRLAVPGGALTSEFVNFEVKRALEWLQGERNENRRYAAVLILKELAKNTSTLIYAHIDSIFELLWHGLRDPKVTIRIASADALSEFLKIVRQRDSSIRLQWYTSILNEAQRGVAQGSSDYIHGSLLVYRQLFLKAGMFMHERYREVSDIILQFRDHKDLLIRKTVTELIATLAAYNPDEFVSNYLHVCMLHLLNLLKKENVKMLAFATIGKVAVAITNSIIPYLDPICDSIKESLKIHIRNKSASDAAIFQCISLLSIALGQAFSNYAYDLFDLIFASGLSEASYRALSDLAHNIPPLLPVIQERLLDMLSKILSGRPFIPPGCPPQYVARSLKSSKSASLKTGFFPNDVYILALKVLGNFDFSGYILNEFVKDCVVVYLENNDPEVRKTASITCSQLFARDPILSQTSDHAIQVVAEVLEKLLTVGICDTVPDIRLTVLNSLDSRFNKHLAQADKIRLLFIAINDENFAVRESALRIIGRLNVYNPAYVMPYLRKIMLKTLTILDYSTIIRTKEENAKLLCLLIAAAPRLIESHVEPILQILLPKAKDSSSIVAASIVNSLGEICQISGEVIVPFIKDLMPLIIEALQDQSSPIRRAAALKALGNLSSSTGYVIDPYIEFPSLLDILIGITKTEQDITIRRETIKLIGTLGALDPNRHRVLEKGTEKVVPEQKNIPPDISLLMSGIGPSSDEYYPTVVITALMSILKDPSLTIHHTAVIQAVMYIFKTMGLRCAPFLSQIIPEFIAVMRTCPTNILEFYFQQLSILVLIVRQHIRSFLPDLFKLIKDFWNPHSNLQFTILSLIESLARAMQGEFKPYLPSLLVMMLQIFDSDVSVDSVSTKKVLHAFIVFGDTLADYFHMLLDPILRLYERNDVSIGIKESIMITIGRLSMVINLSEYASRIIHPVMRMLSCNNASLIRVSMDTVCALIYQLNVDFAIFIPMIDKCLKMNGVTHETYSILVEQFLQEQPLPIKLNPYEKYDKPKLDVVASAADITSKKLPVNQEILRNAWEASQRSTKDDWQEWIRRLGVALLRESPSHALRACAALAAAYQPLARDLFNASFVSCWSELYDHFQEELVKSIEIALTSPHISPEIIQILLNLAEFMEHDDKPLPIDIRTLGAYAAKCHAFAKALHYKELEFIEEELVTKPSVDTIEALISINNQLQQPDAAIGILKHAQQHDKMNLKETWYEKLQRWEDALSAYEKREAAGAGNFEITMGKLRCLHALGEWDRLSQLAQENWIHAGHDARRYIAPLSVAAAWGLGQWEQMDEYISVMKSESPDKAFFNAIVALHRSQFEEAASYITRARDLLDTELTALVGESYNRAYSVAVRVQMLSELEEIITYKKAEDKPEVREMIKKTWVRRLKGCQRNVDVWQRMLRIRSLVISPRDNMEMWIKFANLCRKSGRISLAKKSLNLLLEDDENLDNSLVLKKTHPSIVYANLKFLWAVDDKRKALNSMQEFTSQLISDINVDPALFVQSTSVNTQKSQEEIQYYFHLLARCYHKQGQWQQEIENNWSEGSFDGVLQSYMYATQFDSKWYKAWHSWALANFEAVKFLEQSEEQIPSAAYEQYIIPAVKGFFKSIALSKGNLQDTLRLLNLWFKFGNNSNVINTLNVGISTVNIDIWLDVIPQLIARIHASSLSVRKSVHQLLSDVGRAHPQALVYPLTVAAKSQSSARQNAALAIMDSLKTHSPRLVEQARLVSHELIRAAILWHEQWHEGLEEASRLYFGDHNIEGMFAVLRPLHEMLERGPETLREISFQQAFGRDLVEARDCCIRFEQTGDISDLNQAWDLYYQVFKKIRKQLPQLTTLDLQYVSPKLLHVHDLELAVPGTYVSGKPVIRIVKFYPTFNVITSKQRPRRLSIKGSDGKDYQYVLKGHEDIRQDERVMQLFGLCNNLLLADPETFKRLLSIQRYPVIPLSPDSGLLGWVLDSDTLHVLIRDYRESRKILLNIEHRLIIQMAPDYDRLTLLQKVEVFEYALLSTTGQDLYRVLWLKSRSSEAWLNRRTNYSRTLAVMSMVGYILGLGDRHPSNLMLDRYTGNIIHIDFGDCFEVAMHREKFPEKIPFRLTRMLVNAMEVSGIEGTFRITCEHVMRVLRTNKESVMAVLEAFVYDPLINWRLAPAYSPSIDEKQSNEPNTLLGETIDGLHRKRLNEEGITLEERQKPEILNQRAITVLNRVSNKLTGRDFKPQQQLDVPSQVEKLILQATSIENLCLCYIGWCSFW

Variants of: B1
Assay: co-immunoprecipitation (anti-FLAG affinity beads) with quantified immunoblot; n=3 independent experiments; parent: 1; read off a plot

With chain 1 R504A as the variant, how does the ratio to parent read?
Its ratio to parent is roughly 0.53.

How did the ratio to parent turn out when chain 1 R358A was run?
The ratio to parent was roughly 0.42.

How did the ratio to parent turn out when chain 1 Y533A was run?
The ratio to parent was roughly 0.9.
